Two molecules from article PMC10156175 (Cell, 2023) can be followed below.

One assay deals with CUL1 (human, UniProt Q13616). Put plainly: cryo-EM structure.
The target of assay [1] is SCF^FBXW7 (CUL1-RBX1-SKP1-FBXW7), pre-formed (human, UniProt Q13616;P62877;P63208;Q969H0, for the native gels: labelled with fluorescein (site not stated)). Put plainly: native gel or EMSA.
Assay [2] concerns the target SCF^SKP2 (CUL1-RBX1-SKP1-SKP2), pre-formed (human, UniProt Q13616;P62877;P63208;Q13309). Put plainly: native gel or EMSA. (A gel shift assay detects complexes by their altered migration in electrophoresis.)

CUL1, sequence (Q13616 whole entry): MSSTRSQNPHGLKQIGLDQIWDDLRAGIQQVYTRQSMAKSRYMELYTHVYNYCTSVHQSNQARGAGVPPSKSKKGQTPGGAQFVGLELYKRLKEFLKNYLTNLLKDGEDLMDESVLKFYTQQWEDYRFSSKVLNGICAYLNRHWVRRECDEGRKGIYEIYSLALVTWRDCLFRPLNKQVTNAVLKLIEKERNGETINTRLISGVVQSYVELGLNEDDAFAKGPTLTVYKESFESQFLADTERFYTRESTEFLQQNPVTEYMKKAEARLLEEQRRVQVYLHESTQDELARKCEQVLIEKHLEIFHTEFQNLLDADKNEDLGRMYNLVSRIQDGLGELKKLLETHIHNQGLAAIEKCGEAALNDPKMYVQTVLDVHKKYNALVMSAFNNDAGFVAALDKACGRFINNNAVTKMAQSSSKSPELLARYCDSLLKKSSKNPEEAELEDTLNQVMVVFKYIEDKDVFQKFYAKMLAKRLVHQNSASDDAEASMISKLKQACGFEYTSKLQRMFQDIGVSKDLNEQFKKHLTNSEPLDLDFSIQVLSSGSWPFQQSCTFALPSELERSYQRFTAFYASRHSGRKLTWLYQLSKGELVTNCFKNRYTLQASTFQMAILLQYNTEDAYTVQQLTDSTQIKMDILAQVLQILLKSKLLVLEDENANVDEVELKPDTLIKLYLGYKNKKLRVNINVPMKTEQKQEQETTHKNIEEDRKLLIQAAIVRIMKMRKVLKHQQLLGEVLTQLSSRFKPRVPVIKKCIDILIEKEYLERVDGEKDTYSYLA
SCF^SKP2 (CUL1-RBX1-SKP1-SKP2), pre-formed, sequence (Q13616 whole entry, chain 1 of 4): as the sequence (Q13616 whole entry) above
SCF^SKP2 (CUL1-RBX1-SKP1-SKP2), pre-formed, sequence (P62877 5-108, chain 2 of 4): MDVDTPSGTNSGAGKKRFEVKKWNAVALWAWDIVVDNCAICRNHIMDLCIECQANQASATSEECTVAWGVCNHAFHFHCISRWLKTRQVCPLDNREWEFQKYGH
SCF^SKP2 (CUL1-RBX1-SKP1-SKP2), pre-formed, sequence (P63208 whole entry, chain 3 of 4): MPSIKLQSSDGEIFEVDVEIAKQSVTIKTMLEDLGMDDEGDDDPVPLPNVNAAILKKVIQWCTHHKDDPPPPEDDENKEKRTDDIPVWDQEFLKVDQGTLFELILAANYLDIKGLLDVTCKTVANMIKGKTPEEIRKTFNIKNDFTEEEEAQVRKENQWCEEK
SCF^SKP2 (CUL1-RBX1-SKP1-SKP2), pre-formed, sequence (Q13309 whole entry, chain 4 of 4): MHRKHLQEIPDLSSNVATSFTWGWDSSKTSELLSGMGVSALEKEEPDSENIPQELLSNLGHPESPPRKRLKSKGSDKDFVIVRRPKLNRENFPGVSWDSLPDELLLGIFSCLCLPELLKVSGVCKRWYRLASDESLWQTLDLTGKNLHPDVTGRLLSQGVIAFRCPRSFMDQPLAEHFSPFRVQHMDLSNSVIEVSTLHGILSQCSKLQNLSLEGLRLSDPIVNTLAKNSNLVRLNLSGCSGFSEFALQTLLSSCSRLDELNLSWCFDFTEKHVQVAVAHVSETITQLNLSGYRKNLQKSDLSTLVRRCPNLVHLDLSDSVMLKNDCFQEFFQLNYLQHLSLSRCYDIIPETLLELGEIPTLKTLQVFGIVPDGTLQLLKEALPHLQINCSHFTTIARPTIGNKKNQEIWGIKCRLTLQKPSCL
SCF^FBXW7 (CUL1-RBX1-SKP1-FBXW7), pre-formed, sequence (Q13616 whole entry, chain 1 of 3): as the sequence (Q13616 whole entry) above
SCF^FBXW7 (CUL1-RBX1-SKP1-FBXW7), pre-formed, sequence (P62877 5-108, chain 2 of 3): as the sequence (P62877 5-108, chain 2 of 4) above
SCF^FBXW7 (CUL1-RBX1-SKP1-FBXW7), pre-formed, sequence (P63208 whole entry, chain 3 of 3): as the sequence (P63208 whole entry, chain 3 of 4) above

B1: FBXW7 (263-C) (domain or fragment)
chain: TQVKHMMQVIEPQFQRDFISLLPKELALYVLSFLEPKDLLQAAQTCRYWRILAEDNLLWREKCKEEGIDEPLHIKRRKVIKPGFIHSPWKSAYIRQHRIDTNWRRGELKSPKVLKGHDDHVITCLQFCGNRIVSGSDDNTLKVWSAVTGKCLRTLVGHTGGVWSSQMRDNIIISGSTDRTLKVWNAETGECIHTLYGHTSTVRCMHLHEKRVVSGSRDATLRVWDIETGQCLHVLMGHVAAVRCVQYDGRRVVSGAYDFMVKVWDPETETCLHTLQGHTNRVYSLQFDGIHVVSGSLDTSIRVWDVETGNCIHTLTGHQSLTSGMELKDNILVSGNADSTVKIWDIKTGQCLQTLQGPNKHQSAVTCLQFNKNFVITSSDDGTVKLWDLKTGEFIRNLVTLESGGSGGVVWRIRASNTKLVCAVGSRNGTEETKLLVLDFDVDMK
Turning to B1, the binding result in the assay with CUL1 was “binds”.

B2: CAND1 (Cullin-associated NEDD8-dissociated protein 1) (natural protein)
chain: MASASYHISNLLEKMTSSDKDFRFMATNDLMTELQKDSIKLDDDSERKVVKMILKLLEDKNGEVQNLAVKCLGPLVSKVKEYQVETIVDTLCTNMLSDKEQLRDISSIGLKTVIGELPPASSGSALAANVCKKITGRLTSAIAKQEDVSVQLEALDIMADMLSRQGGLLVNFHPSILTCLLPQLTSPRLAVRKRTIIALGHLVMSCGNIVFVDLIEHLLSELSKNDSMSTTRTYIQCIAAISRQAGHRIGEYLEKIIPLVVKFCNVDDDELREYCIQAFESFVRRCPKEVYPHVSTIINICLKYLTYDPNYNYDDEDEDENAMDADGGDDDDQGSDDEYSDDDDMSWKVRRAAAKCLDAVVSTRHEMLPEFYKTVSPALISRFKEREENVKADVFHAYLSLLKQTRPVQSWLCDPDAMEQGETPLTMLQSQVPNIVKALHKQMKEKSVKTRQCCFNMLTELVNVLPGALTQHIPVLVPGIIFSLNDKSSSSNLKIDALSCLYVILCNHSPQVFHPHVQALVPPVVACVGDPFYKITSEALLVTQQLVKVIRPLDQPSSFDATPYIKDLFTCTIKRLKAADIDQEVKERAISCMGQIICNLGDNLGSDLPNTLQIFLERLKNEITRLTTVKALTLIAGSPLKIDLRPVLGEGVPILASFLRKNQRALKLGTLSALDILIKNYSDSLTAAMIDAVLDELPPLISESDMHVSQMAISFLTTLAKVYPSSLSKISGSILNELIGLVRSPLLQGGALSAMLDFFQALVVTGTNNLGYMDLLRMLTGPVYSQSTALTHKQSYYSIAKCVAALTRACPKEGPAVVGQFIQDVKNSRSTDSIRLLALLSLGEVGHHIDLSGQLELKSVILEAFSSPSEEVKSAASYALGSISVGNLPEYLPFVLQEITSQPKRQYLLLHSLKEIISSASVVGLKPYVENIWALLLKHCECAEEGTRNVVAECLGKLTLIDPETLLPRLKGYLISGSSYARSSVVTAVKFTISDHPQPIDPLLKNCIGDFLKTLEDPDLNVRRVALVTFNSAAHNKPSLIRDLLDTVLPHLYNETKVRKELIREVEMGPFKHTVDDGLDIRKAAFECMYTLLDSCLDRLDIFEFLNHVEDGLKDHYDIKMLTFLMLVRLSTLCPSAVLQRLDRLVEPLRATCTTKVKANSVKQEFEKQDELKRSAMRAVAALLTIPEAEKSPLMSEFQSQISSNPELAAIFESIQKDSSSTNLESMDTS
modifications: for the native gels only: TAMRA-(PEG)5-LPETGG peptide joined to the amino-terminus by sortase
In the case of B2, the binding result in assay [1] and in assay [2] was “binds” in each case.
